Results on 65 substances are retold here after patent US20170002055A1, “Novel peptides and combination of peptides for use in immunotherapy against ovarian cancer and other cancers” (immatics biotechnologies GmbH, priority 2015, published 2017).

The experiment has as its target HLA-A*02:01 (Homo sapiens, UniProt P04439, D140Y/D185E/D98H/E176V/E277Q/G131W/G231S/I119V/I121R/I166T/I218V/L300P/L318F/N151K/N90K/P208A/P217A/Q86G/Q94H/R138H/R169H/T345S). Nature of the experiment: MHC binding assay (UV-ligand exchange, β2m ELISA, peptide exchange yield). As to conditions: MHC class I binding score; binding to HLA-A*02:01 ranged by peptide exchange yield (UV-ligand exchange, β2m ELISA). From the text: Candidate peptides for T cell based therapies according to the present invention were further tested for their MHC binding capacity (affinity). The individual peptide-MHC complexes were produced by UV-ligand exchange, where a UV-sensitive peptide is cleaved upon UV-irradiation, and exchanged with the peptide of interest as analyzed. Only peptide candidates that can effectively bind and stabilize the peptide-receptive MHC molecules prevent dissociation of the MHC complexes. To determine the yield of the exchange reaction, an ELISA was performed based on the detection of the light chain (β2m) of stabilized MHC complexes. The assay was performed as generally described in Rodenko et al. (Rodenko et al., 2006).
96 well MAXISorp plates (NUNC) were coated over night with 2 ug/ml streptavidin in PBS at room temperature, washed 4× and blocked for 1h at 37° C. in 2% BSA containing blocking buffer. […] Peptide-MHC monomers of the UV-exchange reaction were diluted 100 fold in blocking buffer. Samples were incubated for 1h at 37° C., washed four times, incubated with 2 ug/ml HRP conjugated anti-β2m for 1h at 37° C., washed again and detected with TMB solution that is stopped with […]. Absorption was measured at 450 nm. Candidate peptides that show a high exchange yield (preferably higher than 50%, most preferred higher than 75%) are generally preferred for a generation and production of antibodies or fragments thereof, and/or T cell receptors or fragments thereof, as they show sufficient avidity to the MHC molecules and prevent dissociation of the MHC complexes.
For the substance “147 (SLLEAVSFL; listed as Homo sapiens) [compound 147]”, the Peptide exchange entry is on record as ““+++” (≧50 = +++)”.

With “148 (ALNPEIVSV; listed as Homo sapiens) [compound 148]”, the Peptide exchange result was ““++” (≧20% = ++)”.

For the substance “149 (NLLELFVQL; listed as Homo sapiens) [compound 149]”, the Peptide exchange entry is recorded as ““+++” (≧50 = +++)”.

On to “151 (KILQQLVTL; listed as Homo sapiens) [compound 151]”, for which the Peptide exchange result is ““+++” (≧50 = +++)”.

On to “153 (FLIANVLYL; listed as Homo sapiens) [compound 153]”, for which the Peptide exchange result is on record as ““+” (≧10% = +)”.

Turning to “154 (ALDDGTPAL; listed as Homo sapiens) [compound 154]”, the Peptide exchange result was ““++” (≧20% = ++)”.

“155 (RVANLHFPSV; listed as Homo sapiens) [compound 155]”: the Peptide exchange entry is reported as ““+++” (≧50 = +++)”.

As for “158 (KLFDVDEDGYI; listed as Homo sapiens) [compound 158]”, the Peptide exchange result is on record as ““+++” (≧50 = +++)”.

As for “159 (GLVGNPLPSV; listed as Homo sapiens) [compound 159]”, the Peptide exchange entry is on record as ““++++” (≧75% = ++++)”.

With “160 (FLFDEEIEQI; listed as Homo sapiens) [compound 160]”, the Peptide exchange result is recorded as ““+++” (≧50 = +++)”.

Regarding “161 (ALLEGVNTV; listed as Homo sapiens) [compound 161]”, the Peptide exchange entry is listed as ““+++” (≧50 = +++)”.

In the case of “162 (YQQAQVPSV; listed as Homo sapiens) [compound 162]”, the Peptide exchange entry is reported as ““+++” (≧50 = +++)”.

For the substance “163 (ALDEMGDLLQL; listed as Homo sapiens) [compound 163]”, the Peptide exchange entry is reported as ““+++” (≧50 = +++)”.

For the substance “164 (ALLPQPKNLTV; listed as Homo sapiens) [compound 164]”, the Peptide exchange entry is reported as ““+++” (≧50 = +++)”.

On to “165 (SLLDEIRAV; listed as Homo sapiens) [compound 165]”, for which the Peptide exchange result is given as ““+++” (≧50 = +++)”.

As for “167 (KVLEVTEEFGV; listed as Homo sapiens) [compound 167]”, the Peptide exchange entry is ““+++” (≧50 = +++)”.

Consider “168 (KILDADIQL; listed as Homo sapiens) [compound 168]”, for which the Peptide exchange entry is recorded as ““++++” (≧75% = ++++)”.

With “169 (NLPEYLPFV; listed as Homo sapiens) [compound 169]”, the Peptide exchange result is reported as ““+++” (≧50 = +++)”.

With “170 (RLQETLSAA; listed as Homo sapiens) [compound 170]”, the Peptide exchange result is given as ““+++” (≧50 = +++)”.

For “171 (LLLPLQILL; listed as Homo sapiens) [compound 171]”, the Peptide exchange result is listed as ““+++” (≧50 = +++)”.

For the substance “172 (VLYSYTIITV; listed as Homo sapiens) [compound 172]”, the Peptide exchange result is reported as ““++” (≧20% = ++)”.

Regarding “173 (LLDSASAGLYL; listed as Homo sapiens) [compound 173]”, the Peptide exchange result was ““+++” (≧50 = +++)”.

Turning to “174 (ALAQYLITA; listed as Homo sapiens) [compound 174]”, the Peptide exchange entry was ““+++” (≧50 = +++)”.

As for “175 (YLFENISQL; listed as Homo sapiens) [compound 175]”, the Peptide exchange result is on record as ““+++” (≧50 = +++)”.

As for “176 (YLMEGSYNKVFL; listed as Homo sapiens) [compound 176]”, the Peptide exchange result is listed as ““++” (≧20% = ++)”.

Take “177 (YLLPEEYTSTL; listed as Homo sapiens) [compound 177]”: the Peptide exchange entry was ““++++” (≧75% = ++++)”.

With “178 (ALTEIAFVV; listed as Homo sapiens) [compound 178]”, the Peptide exchange entry is ““++++” (≧75% = ++++)”.

“179 (KVLNELYTV; listed as Homo sapiens) [compound 179]”: the Peptide exchange entry is given as ““+++” (≧50 = +++)”.

Regarding “180 (FQIDPHSGLVTV; listed as Homo sapiens) [compound 180]”, the Peptide exchange result is ““++” (≧20% = ++)”.

“181 (LLWAGTAFQV; listed as Homo sapiens) [compound 181]”: the Peptide exchange result is recorded as ““+++” (≧50 = +++)”.

For “182 (MLLEAPGIFL; listed as Homo sapiens) [compound 182]”, the Peptide exchange entry is given as ““+++” (≧50 = +++)”.

For “183 (FGLDLVTEL; listed as Homo sapiens) [compound 183]”, the Peptide exchange entry is on record as ““+++” (≧50 = +++)”.

“184 (YLMDINGKMWL; listed as Homo sapiens) [compound 184]”: the Peptide exchange result is reported as ““+++” (≧50 = +++)”.

With “185 (FLIDDKGYTL; listed as Homo sapiens) [compound 185]”, the Peptide exchange result is listed as ““++” (≧20% = ++)”.

As to “186 (TLFFQQNAL; listed as Homo sapiens) [compound 186]”, the Peptide exchange entry is ““++” (≧20% = ++)”.

On to “187 (RQISIRGIVGV; listed as Homo sapiens) [compound 187]”, for which the Peptide exchange entry is on record as ““+++” (≧50 = +++)”.

In the case of “188 (GLFPVTPEAV; listed as Homo sapiens) [compound 188]”, the Peptide exchange result was ““+++” (≧50 = +++)”.

As for “189 (ALQRKLPYV; listed as Homo sapiens) [compound 189]”, the Peptide exchange result is on record as ““+++” (≧50 = +++)”.

“190 (FLSSLTETI; listed as Homo sapiens) [compound 190]”: the Peptide exchange entry is ““+++” (≧50 = +++)”.

Take “192 (KMLDGASFTL; listed as Homo sapiens) [compound 192]”: the Peptide exchange result is given as ““+++” (≧50 = +++)”.

Turning to “193 (QLLDADGFLNV; listed as Homo sapiens) [compound 193]”, the Peptide exchange entry is ““+++” (≧50 = +++)”.

As for “194 (ALPLFVITV; listed as Homo sapiens) [compound 194]”, the Peptide exchange entry was ““+++” (≧50 = +++)”.

In the case of “195 (GLFADLLPRL; listed as Homo sapiens) [compound 195]”, the Peptide exchange entry is given as ““+++” (≧50 = +++)”.

Take “196 (YLYSVEIKL; listed as Homo sapiens) [compound 196]”: the Peptide exchange result was ““++++” (≧75% = ++++)”.

Consider “197 (ALGPEGGRV; listed as Homo sapiens) [compound 197]”, for which the Peptide exchange entry was ““++” (≧20% = ++)”.

On to “200 (LLFGSVQEV; listed as Homo sapiens) [compound 200]”, for which the Peptide exchange result is on record as ““+++” (≧50 = +++)”.

For “201 (RLVDYLEGI; listed as Homo sapiens) [compound 201]”, the Peptide exchange entry is listed as ““+++” (≧50 = +++)”.

Regarding “202 (ALLDQQGSRWTL; listed as Homo sapiens) [compound 202]”, the Peptide exchange entry was ““+++” (≧50 = +++)”.

On to “204 (KIAENVEEV; listed as Homo sapiens) [compound 204]”, for which the Peptide exchange result was ““++” (≧20% = ++)”.

Consider “205 (SLYPGTETMGL; listed as Homo sapiens) [compound 205]”, for which the Peptide exchange result is listed as ““+++” (≧50 = +++)”.

As for “206 (VLQEGKLQKLAQL; listed as Homo sapiens) [compound 206]”, the Peptide exchange result is reported as ““+++” (≧50 = +++)”.

Take “207 (GLTSTNAEV; listed as Homo sapiens) [compound 207]”: the Peptide exchange entry is reported as ““++” (≧20% = ++)”.

As for “208 (KISPVTFSV; listed as Homo sapiens) [compound 208]”, the Peptide exchange entry was ““+++” (≧50 = +++)”.

Consider “209 (KLIESKHEV; listed as Homo sapiens) [compound 209]”, for which the Peptide exchange result is listed as ““++” (≧20% = ++)”.

On to “210 (LLLNAVLTV; listed as Homo sapiens) [compound 210]”, for which the Peptide exchange result was ““++” (≧20% = ++)”.

As to “211 (LLWPGAALL; listed as Homo sapiens) [compound 211]”, the Peptide exchange entry is ““++” (≧20% = ++)”.

Regarding “212 (ALWDQDNLSV; listed as Homo sapiens) [compound 212]”, the Peptide exchange result is recorded as ““++” (≧20% = ++)”.

On to “214 (FLLDLDPLLL; listed as Homo sapiens) [compound 214]”, for which the Peptide exchange entry is given as ““+++” (≧50 = +++)”.

Take “216 (NLWEDPYYL; listed as Homo sapiens) [compound 216]”: the Peptide exchange entry is recorded as ““+++” (≧50 = +++)”.

On to “217 (ALIHPVSTV; listed as Homo sapiens) [compound 217]”, for which the Peptide exchange result is ““++” (≧20% = ++)”.

“218 (SALEELVNV; listed as Homo sapiens) [compound 218]”: the Peptide exchange result is ““++” (≧20% = ++)”.

Take “219 (KLSDIGITV; listed as Homo sapiens) [compound 219]”: the Peptide exchange entry was ““+++” (≧50 = +++)”.

For “220 (LLQKFVPEI; listed as Homo sapiens) [compound 220]”, the Peptide exchange result is listed as ““++” (≧20% = ++)”.

On to “221 (ALYEEGLLL; listed as Homo sapiens) [compound 221]”, for which the Peptide exchange result is recorded as ““++” (≧20% = ++)”.

Turning to “222 (NLIENVQRL; listed as Homo sapiens) [compound 222]”, the Peptide exchange result was ““++” (≧20% = ++)”.
